Here are results for 4 molecules from US20230242902A1, “A HIGHLY ERROR-PRONE […] R[…] FOR TARGETED CONTINUOUS EVOLUTION IN VIVO” (The Regents of the University of California, priority 2017, published 2023).

To fix the notation:
B1: E613D: TP-DNAP1 variant (protein)
chain: MDYKDKALNDLRNVYADFDSLPLDFRQILIKDRATLLQKEDVEKKILERQEDAKKYAEYLKQSEIPERISLPNIKRHKGVSISFEETSEDMVLEPRPFIFDGLNIRCFRRETIFSLKNKILNMVKESSSFKNVSRQSVSFMYFKIFNKGKVIASTKSVNIYEDKIDERLEDLCNNFDDVLKKIIDVTYGYESLFVSETYSYVIFYAKSIYFPQPRCVNNWGNNIPNILTFDSFKLFTANKNNVSCIKQCSRFLWQKDFNTLEEMIEYKNGNICIVTPQLHINDVRDIKSFNDIRLYSESPIKTFSVIDNTITYLFYFKEHLGVIFNITKSRHDRRVTKFSPLSKFSDVKNITVCFDIESYFDPEKESNQVNIPFICCASIIYNKVIGNIVDFEGRDCVAQMIEYVVDICGELNISSVELIAHNGGGYDFHYILSSMYNPAAIKNILIRNNSFISFNFAHDGVKFSVKDSYSFLLCSLANASKAFLNEETFKKTDFPHHDLKTADDLYKVYKEWSSVNTEINHVVEKEKLLITSEHIVNFTKNDKSKTLIEWSKDYCRNDVLVLSKVWLEFKNAVEDIFNCELVDQTMTLAGLSYKLFQANMPFDVELRHPNKDDYFNMREALIGGRCISVNGIYKDVLCLDVKSLYPASMAFYDQPYGSFKRVSSRPKDELGIYYVRVTPNRNNKSNFFPIRSHNKITYNNFEESTYIAWYTNVDIDIGLSEGHNIEYIPFDSYGNIGYSWSKKGKIFEKYIKDVLYKLKIKYEKQNNKVKRNVIKIIMNSLWGKFAQKWVNFEYFIKSEDDIDFESEEAYKIWDTDFMLIKKIKESTYSSKPIQNGVFTLSWARYHMKSIWDAGAKEGAECIYSDTDSIFVHKEHFKKNAKFMLNGLKVPIIGSEVGQLELECEFDKLLCAGKKQYMGFYTYFQDGKPCIKEKKRFKGIPSNYIIPELYAHLLSGADKEAKIQFLKFRREWGSVKGYIENKTVKAT
B2: E620R: TP-DNAP1 variant (protein)
chain: MDYKDKALNDLRNVYADFDSLPLDFRQILIKDRATLLQKEDVEKKILERQEDAKKYAEYLKQSEIPERISLPNIKRHKGVSISFEETSEDMVLEPRPFIFDGLNIRCFRRETIFSLKNKILNMVKESSSFKNVSRQSVSFMYFKIFNKGKVIASTKSVNIYEDKIDERLEDLCNNFDDVLKKIIDVTYGYESLFVSETYSYVIFYAKSIYFPQPRCVNNWGNNIPNILTFDSFKLFTANKNNVSCIKQCSRFLWQKDFNTLEEMIEYKNGNICIVTPQLHINDVRDIKSFNDIRLYSESPIKTFSVIDNTITYLFYFKEHLGVIFNITKSRHDRRVTKFSPLSKFSDVKNITVCFDIESYFDPEKESNQVNIPFICCASIIYNKVIGNIVDFEGRDCVAQMIEYVVDICGELNISSVELIAHNGGGYDFHYILSSMYNPAAIKNILIRNNSFISFNFAHDGVKFSVKDSYSFLLCSLANASKAFLNEETFKKTDFPHHDLKTADDLYKVYKEWSSVNTEINHVVEKEKLLITSEHIVNFTKNDKSKTLIEWSKDYCRNDVLVLSKVWLEFKNAVEDIFNCELVDQTMTLAGLSYKLFQANMPFDVELRHPNKEDYFNMRRALIGGRCISVNGIYKDVLCLDVKSLYPASMAFYDQPYGSFKRVSSRPKDELGIYYVRVTPNRNNKSNFFPIRSHNKITYNNFEESTYIAWYTNVDIDIGLSEGHNIEYIPFDSYGNIGYSWSKKGKIFEKYIKDVLYKLKIKYEKQNNKVKRNVIKIIMNSLWGKFAQKWVNFEYFIKSEDDIDFESEEAYKIWDTDFMLIKKIKESTYSSKPIQNGVFTLSWARYHMKSIWDAGAKEGAECIYSDTDSIFVHKEHFKKNAKFMLNGLKVPIIGSEVGQLELECEFDKLLCAGKKQYMGFYTYFQDGKPCIKEKKRFKGIPSNYIIPELYAHLLSGADKEAKIQFLKFRREWGSVKGYIENKTVKAT
B3: N291W: TP-DNAP1 variant (protein)
chain: MDYKDKALNDLRNVYADFDSLPLDFRQILIKDRATLLQKEDVEKKILERQEDAKKYAEYLKQSEIPERISLPNIKRHKGVSISFEETSEDMVLEPRPFIFDGLNIRCFRRETIFSLKNKILNMVKESSSFKNVSRQSVSFMYFKIFNKGKVIASTKSVNIYEDKIDERLEDLCNNFDDVLKKIIDVTYGYESLFVSETYSYVIFYAKSIYFPQPRCVNNWGNNIPNILTFDSFKLFTANKNNVSCIKQCSRFLWQKDFNTLEEMIEYKNGNICIVTPQLHINDVRDIKSFWDIRLYSESPIKTFSVIDNTITYLFYFKEHLGVIFNITKSRHDRRVTKFSPLSKFSDVKNITVCFDIESYFDPEKESNQVNIPFICCASIIYNKVIGNIVDFEGRDCVAQMIEYVVDICGELNISSVELIAHNGGGYDFHYILSSMYNPAAIKNILIRNNSFISFNFAHDGVKFSVKDSYSFLLCSLANASKAFLNEETFKKTDFPHHDLKTADDLYKVYKEWSSVNTEINHVVEKEKLLITSEHIVNFTKNDKSKTLIEWSKDYCRNDVLVLSKVWLEFKNAVEDIFNCELVDQTMTLAGLSYKLFQANMPFDVELRHPNKEDYFNMREALIGGRCISVNGIYKDVLCLDVKSLYPASMAFYDQPYGSFKRVSSRPKDELGIYYVRVTPNRNNKSNFFPIRSHNKITYNNFEESTYIAWYTNVDIDIGLSEGHNIEYIPFDSYGNIGYSWSKKGKIFEKYIKDVLYKLKIKYEKQNNKVKRNVIKIIMNSLWGKFAQKWVNFEYFIKSEDDIDFESEEAYKIWDTDFMLIKKIKESTYSSKPIQNGVFTLSWARYHMKSIWDAGAKEGAECIYSDTDSIFVHKEHFKKNAKFMLNGLKVPIIGSEVGQLELECEFDKLLCAGKKQYMGFYTYFQDGKPCIKEKKRFKGIPSNYIIPELYAHLLSGADKEAKIQFLKFRREWGSVKGYIENKTVKAT
B4: F616E: TP-DNAP1 variant (protein)
chain: MDYKDKALNDLRNVYADFDSLPLDFRQILIKDRATLLQKEDVEKKILERQEDAKKYAEYLKQSEIPERISLPNIKRHKGVSISFEETSEDMVLEPRPFIFDGLNIRCFRRETIFSLKNKILNMVKESSSFKNVSRQSVSFMYFKIFNKGKVIASTKSVNIYEDKIDERLEDLCNNFDDVLKKIIDVTYGYESLFVSETYSYVIFYAKSIYFPQPRCVNNWGNNIPNILTFDSFKLFTANKNNVSCIKQCSRFLWQKDFNTLEEMIEYKNGNICIVTPQLHINDVRDIKSFNDIRLYSESPIKTFSVIDNTITYLFYFKEHLGVIFNITKSRHDRRVTKFSPLSKFSDVKNITVCFDIESYFDPEKESNQVNIPFICCASIIYNKVIGNIVDFEGRDCVAQMIEYVVDICGELNISSVELIAHNGGGYDFHYILSSMYNPAAIKNILIRNNSFISFNFAHDGVKFSVKDSYSFLLCSLANASKAFLNEETFKKTDFPHHDLKTADDLYKVYKEWSSVNTEINHVVEKEKLLITSEHIVNFTKNDKSKTLIEWSKDYCRNDVLVLSKVWLEFKNAVEDIFNCELVDQTMTLAGLSYKLFQANMPFDVELRHPNKEDYENMREALIGGRCISVNGIYKDVLCLDVKSLYPASMAFYDQPYGSFKRVSSRPKDELGIYYVRVTPNRNNKSNFFPIRSHNKITYNNFEESTYIAWYTNVDIDIGLSEGHNIEYIPFDSYGNIGYSWSKKGKIFEKYIKDVLYKLKIKYEKQNNKVKRNVIKIIMNSLWGKFAQKWVNFEYFIKSEDDIDFESEEAYKIWDTDFMLIKKIKESTYSSKPIQNGVFTLSWARYHMKSIWDAGAKEGAECIYSDTDSIFVHKEHFKKNAKFMLNGLKVPIIGSEVGQLELECEFDKLLCAGKKQYMGFYTYFQDGKPCIKEKKRFKGIPSNYIIPELYAHLLSGADKEAKIQFLKFRREWGSVKGYIENKTVKAT

This test has as its system p1. Nature of the test: p1 copy number by p1-encoded mKate2 fluorescence. Type of test: cell-based, S. cerevisiae. The note with it: OR-Y24, measured in triplicate. On the procedure: A calibration curve was established to correlate p1 copy number, determined via quantitative PCR (qPCR), with fluorescence of p1-encoded mKate2 (Table 1). Five TP-DNAP1 variants representing a wide range of copy numbers were transformed into ORY24 and passaged until w.t. p1 was displaced. The five OR-Y24 strains were grown to saturation, diluted 1:10,000 to mimic p1 fluctuation tests, and grown in triplicate 100 μL cultures and duplicate 40 mL cultures. 100 μL saturated cultures were subject to fluorescence measurement of mKate2 (ex/em=561 nm/620 nm, bandwidth=15 nm) on a flow cytometer (Invitrogen Attune NxT). Whole-cell DNA extracts were prepared from 40 mL cultures and used as templates for qPCR measurement of p1-encoded leu2 (Q180*), as described previously (Ravikumar et al., 2014). p1-encoded LEU2 was PCR amplified with qPCR-Leu2F and qPCR Leu2R; and genomic LEU3 was PCR amplified with qPCR-Leu3F and qPCR-Leu3R using SyBR Green (Fisher Scientific) master mix.
To assay p1 copy number for large-scale p1 fluctuation tests, additional replicates of OR-Y24 strains were grown from the 1:10,000 dilution in triplicate and saturated cultures were subject to fluorescence measurement via flow cytometry. Fluorescence measurements were converted to copy number with the linear calibration curve.
To assay relative p1 copy number for small-scale p1 fluctuation tests, an additional 200 μL culture of OR-Y24 strains were grown from the 1:10,000 dilution. 200 μL saturated cultures were subject to an OD600 measurement and fluorescence measurement of mKate2 (ex/em=588 nm/633 nm), using a microplate reader (TECAN Infinite M200 PRO). A linear relationship was assumed between p1 copy number and OD600-normalized mKate2 fluorescence. Copy numbers were calculated from normalization to a w.t. TP-DNAP1 control.
For a few large-scale p1 fluctuation tests, p1 copy number was assayed by the method of small scale p1 fluctuation tests (i.e. microplate reader measurement). For these experiments, mutant TP-DNAP1 p1 copy numbers were calculated by normalization to a w.t. TP-DNAP1 control. The copy number of this control was assumed to be the average w.t. TP-DNAP1 copy number from all large-scale p1 fluctuation tests that used flow cytometry measurements.
TP-DNAP1 plasmids were isolated from these strains and subject to Sanger sequencing. 210 unique variants were identified and the corresponding plasmids were re-transformed into OR-Y24. Transformed strains were passaged in SC-UH until w.t. p1 was displaced, and subject to p1 copy number measurement in triplicate. Four high copy variants were directly subject to qPCR measurements for validation. To test the suppressor activity of the G410H mutation, which yields increased p1 copy number, this amino acid change was added to several low-activity TP-DNAP1 variants. p1 copy number was similarly assayed for these strains.
With B1, the “Mean fold-increase over w.t. (p1 copy number)” value (from here on “Mean fold-increase”) was found to be 1.82 fold.
Regarding B2, the “Mean fold-increase” value is listed as 2.29 fold.
As to B3, the “Mean fold-increase” value is listed as 2.26 fold.
The result for B4 reads 2.2 fold.
